Consider five molecules from paper PMC11898529, “The LSmAD Domain of Ataxin-2 Modulates the Structure and RNA Binding of Its Preceding LSm Domain”.

Data set [1] concerns the target T1, LSm-LSmAD M2 mutant of Ataxin-2 (UniProt Q99700 242-475, S315Q;S317T). The data set is described as follows: SHAPE footprinting; GU-, AU-, CU-rich protected (CU most); CA-rich unchanged; EMSA: 10 mM Tris pH 8.0, 25 mM KCl, 10 mM NaCl, 1 mM MgCl2, 10% glycerol, 0.5 mM DTT, 20 min, 25 C; SEC and SHAPE buffers not in material. The following applies: protein: recombinant. In general terms: In EMSA bound probe runs differently from free probe, usually more slowly.

Data set [2] addresses T2, LSm domain of Ataxin-2 (UniProt Q99700 242-344). Described as above. The following applies: protein: recombinant; tags: His tag (pET-22b(+), NdeI/XhoI).
Data set [3] concerns the target T2, LSm domain of Ataxin-2. Nature of the data set: size-exclusion chromatography; EMSA: 10 mM Tris pH 8.0, 25 mM KCl, 10 mM NaCl, 1 mM MgCl2, 10% glycerol, 0.5 mM DTT, 20 min, 25 C; SEC and SHAPE buffers not in material. The settings on record: protein: recombinant, tags: His tag (pET-22b(+), NdeI/XhoI), single strand with flanking hairpins. On the technique in general: SEC sorts molecules by how far they enter the pores of the column.

The target of a further data set is LSmAD domain of Ataxin-2 (UniProt Q99700 353-475). The data set is described as follows: EMSA; protein/RNA molar ratio up to 6; 1 mM MgCl2; EMSA: 10 mM Tris pH 8.0, 25 mM KCl, 10 mM NaCl, 1 mM MgCl2, 10% glycerol, 0.5 mM DTT, 20 min, 25 C; SEC and SHAPE buffers not in material. The following applies: protein: recombinant, tags: His tag, single strand with flanking hairpins.

Data set [4] deals with T1, LSm-LSmAD M2 mutant of Ataxin-2. Nature of the data set: EMSA; fully shifted at protein/RNA molar ratio 20; moderate affinity; 1 mM MgCl2; EMSA: 10 mM Tris pH 8.0, 25 mM KCl, 10 mM NaCl, 1 mM MgCl2, 10% glycerol, 0.5 mM DTT, 20 min, 25 C; SEC and SHAPE buffers not in material. The following applies: protein: recombinant; single strand with flanking hairpins.
In data set [5] the target is T2, LSm domain of Ataxin-2. Nature of the data set: SHAPE footprinting; AU-, GU-, CU-rich protected, less than with M2; CA-rich unchanged; EMSA: 10 mM Tris pH 8.0, 25 mM KCl, 10 mM NaCl, 1 mM MgCl2, 10% glycerol, 0.5 mM DTT, 20 min, 25 C; SEC and SHAPE buffers not in material. The settings on record: protein: recombinant; tags: His tag (pET-22b(+), NdeI/XhoI).
The target in data set [6] is T1, LSm-LSmAD M2 mutant of Ataxin-2. The data set is described as follows: SHAPE footprinting; AU-, GU-, CU-rich protected, more than with LSm; CA-rich unchanged; EMSA: 10 mM Tris pH 8.0, 25 mM KCl, 10 mM NaCl, 1 mM MgCl2, 10% glycerol, 0.5 mM DTT, 20 min, 25 C; SEC and SHAPE buffers not in material. The settings on record: protein: recombinant.
Data set [7] addresses T2, LSm domain of Ataxin-2. Nature of the data set: SHAPE footprinting; AU- and GU-rich protected (AU more than with M2); CA-rich unchanged; EMSA: 10 mM Tris pH 8.0, 25 mM KCl, 10 mM NaCl, 1 mM MgCl2, 10% glycerol, 0.5 mM DTT, 20 min, 25 C; SEC and SHAPE buffers not in material. The settings on record: protein: recombinant; tags: His tag (pET-22b(+), NdeI/XhoI).
The target of data set [8] is T1, LSm-LSmAD M2 mutant of Ataxin-2. Nature of the data set: SHAPE footprinting; AU- and GU-rich protected (GU more than with LSm); CA-rich unchanged; EMSA: 10 mM Tris pH 8.0, 25 mM KCl, 10 mM NaCl, 1 mM MgCl2, 10% glycerol, 0.5 mM DTT, 20 min, 25 C; SEC and SHAPE buffers not in material. The settings on record: protein: recombinant.

T1 sequence (Q99700 242-475 S315Q/S317T): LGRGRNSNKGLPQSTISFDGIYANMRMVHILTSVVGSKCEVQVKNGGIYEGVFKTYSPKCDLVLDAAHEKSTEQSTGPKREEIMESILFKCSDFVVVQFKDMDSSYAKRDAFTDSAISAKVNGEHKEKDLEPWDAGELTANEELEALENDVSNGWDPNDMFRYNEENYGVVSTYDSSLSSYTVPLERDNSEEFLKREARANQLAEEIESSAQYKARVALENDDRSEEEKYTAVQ
T2 sequence (Q99700 242-344): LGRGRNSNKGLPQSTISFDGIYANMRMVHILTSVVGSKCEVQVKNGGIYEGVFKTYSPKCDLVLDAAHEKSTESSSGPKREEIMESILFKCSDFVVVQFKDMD
Chain of LSmAD domain of Ataxin-2 (Q99700 353-475): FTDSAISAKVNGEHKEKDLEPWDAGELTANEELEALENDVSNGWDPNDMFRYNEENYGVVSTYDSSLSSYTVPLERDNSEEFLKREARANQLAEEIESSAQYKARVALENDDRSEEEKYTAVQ

B1: RE5 (structured_RNA)
RNA: GGCCUUCGGGCCAAACCGUACACACACACAUGGCUAGACGGUAUGUUUGUUUGUUGUUUGUUUGUUGUUUGUUUGUGUUUGACGUAGGAAUUUAAUUUAAUUUAAUUUAAUUUAAUUUAAUUUACAGGCUACGUAGGCCAGGACCCCUCUUUUCUCCCCAGGACCCCUCUUUUCUCCCCAUUCACCCUCCCUUCUCCAGAGCGAUUCGAUCCGGUUCGCCGGAUCCAAAUCGGGCUUCGGUCCGGUUC
As for B1, the binding result (in data set [1]; with LSm domain of Ataxin-2 [2]) was “binds” each time.

B2: AU-rich RNA (structured_RNA)
RNA: GGCCUUCGGGCCAAAUUUUUAUUUUUAUUUUUAUUUUUAUUUUUUCGAUCCGGUUCGCCGGAUCCAAAUCGGGCUUCGGUCCGGUUC
B2: the binding result with LSm domain of Ataxin-2 [3] is “binds”; with LSmAD domain of Ataxin-2, “no binding”; in [4], “binds”.

B3: AC-rich RNA (structured_RNA)
RNA: GGCCUUCGGGCCAAACCCCCACCCCCACCCCCACCCCCACCCCCUCGAUCCGGUUCGCCGGAUCCAAAUCGGGCUUCGGUCCGGUUC
As to B3, the binding result with LSm domain of Ataxin-2 [3] (two conformers in gel) and in the data set with LSmAD domain of Ataxin-2 (two conformers in gel) was “no binding” each time.

B4: RE2 (structured_RNA)
RNA: GGCCUUCGGGCCAAAUUUAUUUAUUUAUUUAGCGAGAAGUUGUUUGUUUGUGUUUGACGUCUGUGUGGACGUCACACACAGGAUGCAUCGGACCUUUUCCCCUUUUCCCUUUUCGAUCCGGUUCGCCGGAUCCAAAUCGGGCUUCGGUCCGGUUC
With B4, the binding result (in the data set with LSm domain of Ataxin-2 [5]; in data set [6]) was “binds” in each case.

B5: RE1 (structured_RNA)
RNA: GGCCUUCGGGCCAAAUUUAUUUAUUUAUUUAUUUAGCUGACGAUCCACACACACAGGAAUCGACUCUGUUUGUUUGUGUUUGUUUGUACUGAAUUGGCACUUUUCCCCUUUUCCCUUUCUGGACUGGCAUCGAUCCGGUUCGCCGGAUCCAAAUCGGGCUUCGGUCCGGUUC
With B5, the binding result (in the data set with LSm domain of Ataxin-2 [7]; in data set [8]) was “binds” throughout.
